{
  "source": "paper PMC5986058",
  "proteins": {"B1": {"name": "LTAaj (L-threonine aldolase from Aeromonas jandaei; L-allo-threonine aldolase) (Aeromonas jandaei) (protein)", "chain": "MRYIDLRSDTVTQPTDAMRQCMLHAEVGDDVYGEDPGVNALEAYGADLLGKEAALFVPSGTMSNLLAVMSHCQRGEGAVLGSAAHIYRYEAQGSAVLGSVALQPVPMQADGSLALADVRAAIAPDDVHFTPTRLVCLENTHNGKVLPLPYLREMRELVDEHGLQLHLDGARLFNAVVASGHTVRELVAPFDSVSICLSKGLGAPVGSLLVGSHAFIARARRLRKMVGGGMRQAGILAQAGLFALQQHVVRLADDHRRARQLAEGLAALPGIRLDLAQVQTNMVFLQLTSGESAPLLAFMKARGILFSGYGELRLVTHLQIHDDDIEEVIDAFTEYLGA", "notes": "C-terminal His-tag, expressed in E. coli BL21(DE3), Ni-NTA purified, homotetramer, PLP-dependent"}},
  "substrate": "C[C@H](O)[C@H](N)C(=O)O",
  "test": "purified protein",
  "type": "biochemical, Aeromonas jandaei",
  "details": "50 mM NaPi pH 8, 25 °C, 50 μM PLP",
  "data": [
    {"protein": "B1", "values": [
      {"measurement": "Km", "value": 500, "unit": "µM"},
      {"measurement": "kcat", "value": 8.67, "unit": "s⁻¹"},
      {"measurement": "kcat/Km", "value": 17000, "unit": "M⁻¹ s⁻¹"}
    ]}
  ]
}
